What was measured:
IgE-Fc(N265Q,N371Q) [1] = target: T1, IgE-Fc(N265Q,N371Q) (human, UniProt P01854); test: stopped-flow fluorescence
T1 chain: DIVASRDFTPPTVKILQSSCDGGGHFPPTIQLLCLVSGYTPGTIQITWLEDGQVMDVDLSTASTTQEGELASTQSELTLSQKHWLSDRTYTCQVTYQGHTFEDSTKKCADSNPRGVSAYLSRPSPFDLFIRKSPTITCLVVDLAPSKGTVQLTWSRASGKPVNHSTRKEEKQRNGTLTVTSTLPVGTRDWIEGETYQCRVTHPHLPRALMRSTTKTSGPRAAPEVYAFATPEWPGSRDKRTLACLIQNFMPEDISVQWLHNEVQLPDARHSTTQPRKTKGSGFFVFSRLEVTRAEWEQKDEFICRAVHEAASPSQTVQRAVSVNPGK

IgE-Fc(N265Q,N371Q) [2] = target: T1, IgE-Fc(N265Q,N371Q); test: ITC
IgE-Fc(N265Q,N371Q) [3] = target: T1, IgE-Fc(N265Q,N371Q); test: SPR
IgE-Fc(N265Q,N371Q) [4] = target: T1, IgE-Fc(N265Q,N371Q); test: ITC

- kon (IgE-Fc(N265Q,N371Q) [1]): 670000 M⁻¹ s⁻¹
- Kd (IgE-Fc(N265Q,N371Q) [2]): 40 ± 20 nM
- dH (IgE-Fc(N265Q,N371Q) [2]): -3.5 ± 0.1 kcal/mol
- Kd (IgE-Fc(N265Q,N371Q) [3]): 95 nM
- dH1 (first site) (IgE-Fc(N265Q,N371Q) [4]): -3.5 ± 0.1 kcal/mol
- dH2 (second site) (IgE-Fc(N265Q,N371Q) [4]): -1.3 ± 0.1 kcal/mol
B1: anti-ε-chain Fab (aεFab), anti-human IgE-Fc antibody in human IgG1 Fab format (Fab, V domains shown)
VH: QVQLQQSGPGLVKPSQTLSLTCGISGDSVSSNSAAWNWLRQSPSRGLEWLGRTYYRSKWYNDYAVSMKSRITINPDTSRNQFSLQLNSVTPEDTAVYYCARDGEISYDYYYYGMDVWGRGTLVTVSS
VL: QSVLTQPPSASGTPGQRVTISCSGSSSNIGNNGVNWYQQVPGKPPKLLIYYDDLLPSGVSDRFSGSKSGTSASLAISGLQSEDEADYYCEAWDDSLDGVVFGGGTKLTVL
